{
  "source": "the nanobody polyreactivity screen of Harvey et al. (2022)",
  "data": [
    {"experiment": "yeast display, Sf9 membrane polyspecificity reagent, FACS + sequencing; frameworks hold sequencing errors", "in_short": "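Using colony PCR, genes from sorted yeast display clones were amplified, then sequenced on MiSeq at 2 × 250 and filtered by CDR length. The clones had been stained with 10% biotinylated, detergent-solubilized Sf9 membrane reagent for 1 hour at 4 °C and sorted by FACS into low and high (top ~1%) gates on anti-HA and streptavidin fluorescence. Polyreactivity labels come from the gate of origin.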", "values": [
      {"sequence": "QVQLVESGGGLVQAGGSLRLSCAASGSTFSYNTMGWYRQAPGKERELVASNTRSGGSTNYADSVKGRFTISRDNAKNTVYLQMNSLKPEDTAVYYCAKDYISVWNVRASDYYWYDYWGQGTQVTVSS", "polyreactivity (PSR sort gate)": "low polyreactivity"},
      {"sequence": "QVQLVESGGGLVQAGGSLRLSCAASGSTFSYYAMGWYRQAPGKERELVAAITRSGGRTYYADSVKGRFTISRDNAKNTVYLQMNSLKPEDTAVYYCAALSVGTRRDYWGQGTQVTVSS", "polyreactivity (PSR sort gate)": "low polyreactivity"},
      {"sequence": "QVQLVESGGGLVQAGGSLRLSCAASGSTFSYYAMGWYRQAPGKERELVASITWNGARTYYADSVKGRFTISRDNAKNTVYLQMNSLKPEDTAVYYCADRHKYAFWTAFGNYWGQGTQVTVSS", "polyreactivity (PSR sort gate)": "high polyreactivity"},
      {"sequence": "QVQLVESGGGLVQAGGSLRLSCAASGSTFSYYAMGWYRQAPGKERELVAVISRGGSTNYADSVKGRFTISRDNAKNTVYLQMNSLKPEDTAVYYCAAYVLPWRGRGQTEYGYWGQGTQVTVSS", "polyreactivity (PSR sort gate)": "low polyreactivity"},
      {"sequence": "QVQLVESGGGLVQAGGSLRLSCAASGSTFSYYAMGWYRQAPVKERELVAAITSGGGRTYYADSVKGRFTISRDNAKNTVYLQMNSLKPEDTAVYYCNALSTLYNGYDYWGQGTQVTVSS", "polyreactivity (PSR sort gate)": "high polyreactivity"},
      {"sequence": "QVQLVESGGGLVQAGGSLRLSCAASGSTFSYYTMGWYRQAPGKERELVAAISKSGGITYYADSVKGRFTISRDNAKNTVYLQMNSLKPEDTAVYYCAADGGYYDDDYWGQGTQVTVSS", "polyreactivity (PSR sort gate)": "high polyreactivity"},
      {"sequence": "QVQLVESGGGLVQAGGSLRLSCAASGSTFSYYTMPWYRQAPGKERELVAAISRSGANTHYADSVKGRFTISRDNAKITVYLQMNSMKPEDTAVYYCAKVHSGRHYDYWGQGTQVTVSS", "polyreactivity (PSR sort gate)": "high polyreactivity"},
      {"sequence": "QVQLVESGGGLVQAGGSLRLSCAASGSTFTANAMGWYRQAPGKERELVAAISDTTGNTYYADSVKGRFTISRDNAKNTVYLQMNSLKPEDTAVYYCAARQFKSDIVVSLVDSWGQGTHVTVSS", "polyreactivity (PSR sort gate)": "low polyreactivity"},
      {"sequence": "QVQLVESGGGLVQAGGSLRLSCAASGSTFTGNAMGWYRPAPGKERELVADITWSDGSTDYADSVKGRFTISRDNAKNTVYLQMNSLKPDDTAVYYCNARITYYVGTAWYDYWGQGTQVTVSS", "polyreactivity (PSR sort gate)": "low polyreactivity"},
      {"sequence": "QVQLVESGGGLVQAGGSLRLSCAASGSTFTGYAMGWYRPAPGKEREFVAAISRSGGSTYYADSVKGRFTISRDNAKNTVYLQMNSLKPEDTAVYYCNARGFTRYTVGRNYWGQGTQVTVSS", "polyreactivity (PSR sort gate)": "high polyreactivity"},
      {"sequence": "QVQLVESGGGLVQAGGSLRLSCAASGSTFTGYAMGWYRQAPGKEMELVAAISISGGRTVYADSVKGRFTISRDNAKNTVYLQMNSLKREDTAVYYCNARYTRYTLRYYYWGQGTQVTVSS", "polyreactivity (PSR sort gate)": "high polyreactivity"},
      {"sequence": "QVQLVESGGGLVQAGGSLRLSCAASGSTFTGYAMGWYRQAPGKERELVAAISISGGRTFYADSVKGRFTISRDNAKNTVYLQKNSLKPEDTAVSYCAASLRGSKYSFDYWGQGTQVTVSS", "polyreactivity (PSR sort gate)": "high polyreactivity"},
      {"sequence": "QVQLVESGGGLVQAGGSLRLSCAASGSTFTGYDMGWYRQAPGKERELVAAISISGGRTFYADSVKGRFTISRDNAKNTVYLQMNSLKPEDTAVYYCAAYQRGSKYSFDYWGQGTQVTVSS", "polyreactivity (PSR sort gate)": "high polyreactivity"},
      {"sequence": "QVQLVESGGGLVQAGGSLRLSCAASGSTFTGYTMGWYRQAPGKERELVAAISRRGTSTYYADSVKGRFTISRDNAKNSVYLQMNSLKPEDTAVYYCADYQGQKGYDYWGQGTQVTVSS", "polyreactivity (PSR sort gate)": "high polyreactivity"},
      {"sequence": "QVQLVESGGGLVQAGGSLRLSCAASGSTFTGYTMGWYRQAPGKERELVAAISRRGTSTYYADSVKGRFTISRDNAKNTVYLQMNSLKPEDTAVYYCAAYQGQKGYDYWGQGTQVTVSS", "polyreactivity (PSR sort gate)": "high polyreactivity"},
      {"sequence": "QVQLVESGGGLVQAGGSLRLSCAASGSTFTGYVLGWYRQAPGKERELVAAITSSVDGTYYADSVKGRFTISRDIAKNTVYLQMNSLKPEDTAVYYCAADLWKGVYPSYDYWGQGTQVTVSS", "polyreactivity (PSR sort gate)": "low polyreactivity"},
      {"sequence": "QVQLVESGGGLVQAGGSLRLSCAASGSTFTGYVMGWYRQAPGKERELVAAITSSVDGTYYADSVKGRFTISRDNAKNTVYLQMNSLKPEDTAVYDCAADLWKGVYPSYDYWGQGTQVTVSS", "polyreactivity (PSR sort gate)": "low polyreactivity"},
      {"sequence": "QVQLVESGGGLVQAGGSLRLSCAASGSTFTINVMGWYRQAPGKERELVAAIHGGGRPNYADSVKGRFTISRDNAKKTVYLQMNSLKPEDTAVYYCAADGLSNVRQMDYWGQGTQVTVSS", "polyreactivity (PSR sort gate)": "low polyreactivity"},
      {"sequence": "QVQLVESGGGLVQAGGSLRLSCAASGSTFTKYDMGWYRQAPGKERELVAAIRSGGDTNYADSVKGRFTISRDNAKNTVYLQMNSLKPEDTAVYYCAAERGPTNHTSYPWYEYHYWGQGTQVTVSS", "polyreactivity (PSR sort gate)": "low polyreactivity"},
      {"sequence": "QVQLVESGGGLVQAGGSLRLSCAASGSTFTLNAMGWYRQAPGKECELVADISWSSGRTYYADSVKGRFTISRDNAKNTVYLHMNSLKPEDTAVYYCATDDFWNVKFYAYYPEFDYWGQGTQVTVSS", "polyreactivity (PSR sort gate)": "low polyreactivity"},
      {"sequence": "QVQLVESGGGLVQAGGSLRLSCAASGSTFTLNAMGWYRQAPGKERELVARISSGGGSTYYADSVNGRFTISRDNAKNTVYLQMNSLKPEDTAVYYCNAGNYRDKSYYWGQGTQVTVSS", "polyreactivity (PSR sort gate)": "low polyreactivity"},
      {"sequence": "QVQLVESGGGLVQAGGSLRLSCAASGSTFTLYAMGWYRQAPGKERELVAAISWSGDTTYYADSVKGRFTISRDNAKNTVYLQMNSLKPEDTAVYYCAADWYTSYYYEHESWGQGTQVTVSS", "polyreactivity (PSR sort gate)": "high polyreactivity"},
      {"sequence": "QVQLVESGGGLVQAGGSLRLSCAASGSTFTLYAMGWYRQAPGKERELVAAITWRGGSTFYADSVKGRFTISRDNAKNTVYLQMNSLKPEDTAVYYCAADYYSYVVGRIDYWGQGTQVTVSS", "polyreactivity (PSR sort gate)": "high polyreactivity"},
      {"sequence": "QVQLVESGGGLVQAGGSLRLSCAASGSTFTLYAMGWYRQAPGKERELVATITGSGGSTNYADSVKGRFTISRDNAKNTVDLQMNSLKPEDTAVYYCAKRVQQSTWYGYGIGYEYWGQGTQVTVSS", "polyreactivity (PSR sort gate)": "high polyreactivity"},
      {"sequence": "QVQLVESGGGLVQAGGSLRLSCAASGSTFTNNGMGWYRQAPGKERELVATISWDGDSTYYADSVKGRFTISRDNAKNTVYLQMISQKPEDTAVYYCAADEWGSDSALNFEYWGQGTQVTVSS", "polyreactivity (PSR sort gate)": "low polyreactivity"},
      {"sequence": "QVQLVESGGGLVQAGGSLRLSCAASGSTFTNYAMGWYRQAPGKERELVAAISSSGGRTYYADSVKGRFTISRDNAKNTVYLQMNSLKPEDTAVYYCARVVRPSVGDYWGQGTQVTVSS", "polyreactivity (PSR sort gate)": "high polyreactivity"},
      {"sequence": "QVQLVESGGGLVQAGGSLRLSCAASGSTFTNYAMGWYRQAPGKERELVAGISRSGGTTYYADSVKGRFTISRDNVKNTVYLQMNSLKPEDTAVYYCAAVGYFGGYRYDYWGQGTQVTVSS", "polyreactivity (PSR sort gate)": "high polyreactivity"},
      {"sequence": "QVQLVESGGGLVQAGGSLRLSCAASGSTFTPNAMGWYRQAPGKERELVAAINWSDSSTYYADSVKGRFTISRDNAKNTVYLQMNSLKPEDTAVYFCAAAAQYGQLQVPVYYWGQGTQVTVSS", "polyreactivity (PSR sort gate)": "low polyreactivity"},
      {"sequence": "QVQLVESGGGLVQAGGSLRLSCAASGSTFTPNAMGWYRQAPGKERELVAASRYTGVGTYYADSVKGRFTISRDNAKNTVYLQMNSPKPEDTAVYYCNRVSRYYNYDYWGQGTQVTVSS", "polyreactivity (PSR sort gate)": "high polyreactivity"},
      {"sequence": "QVQLVESGGGLVQAGGSLRLSCAASGSTFTPNVMGWSRQAPGKERELVAAINSSGGSTFYADSVKGRFTISRDNAKNTVYLQMNSLKPEDTAVYYCAASWHTPTVYDEYYYWGQGTQVTVSS", "polyreactivity (PSR sort gate)": "low polyreactivity"},
      {"sequence": "QVQLVESGGGLVQAGGSLRLSCAASGSTFTPYAMGWNRQAPGKERELVAAIRRGGSTNYADSVKGRFTISRDNEKNTVYLQMNSLKPEDTAVYYCAATKRRFVKFDYWGQGTQVTVSS", "polyreactivity (PSR sort gate)": "low polyreactivity"}
    ]}
  ]
}
